{"source": "paper doi:10.1101/2023.01.27.525918", "about": "(bioRxiv, 2023)", "key": {"[1]": {"biological_target": "ZUP1;RPA complex WT (RPA70/RPA32/RPA14) (Homo sapiens;Homo sapiens, UniProt Q96AP4;P27694;P15927;P35244 1-578;1-616;1-270;1-121, |)", "sequence (P27694 whole entry, chain 2 of 3)": "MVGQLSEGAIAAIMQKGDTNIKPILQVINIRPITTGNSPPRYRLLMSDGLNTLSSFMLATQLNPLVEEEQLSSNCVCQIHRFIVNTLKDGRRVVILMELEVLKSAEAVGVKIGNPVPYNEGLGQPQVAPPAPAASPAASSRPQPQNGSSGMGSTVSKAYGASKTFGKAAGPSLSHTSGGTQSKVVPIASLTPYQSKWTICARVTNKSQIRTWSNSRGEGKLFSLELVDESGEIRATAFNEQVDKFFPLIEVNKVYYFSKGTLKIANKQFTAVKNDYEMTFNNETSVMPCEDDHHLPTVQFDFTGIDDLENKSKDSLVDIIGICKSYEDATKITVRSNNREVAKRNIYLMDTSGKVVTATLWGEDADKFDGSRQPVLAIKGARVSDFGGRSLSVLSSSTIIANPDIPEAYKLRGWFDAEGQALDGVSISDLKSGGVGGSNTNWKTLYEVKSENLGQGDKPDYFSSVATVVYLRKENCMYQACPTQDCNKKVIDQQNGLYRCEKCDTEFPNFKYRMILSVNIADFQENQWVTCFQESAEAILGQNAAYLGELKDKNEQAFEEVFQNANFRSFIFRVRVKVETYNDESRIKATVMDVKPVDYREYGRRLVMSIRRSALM", "sequence (P15927 whole entry, chain 3 of 3)": "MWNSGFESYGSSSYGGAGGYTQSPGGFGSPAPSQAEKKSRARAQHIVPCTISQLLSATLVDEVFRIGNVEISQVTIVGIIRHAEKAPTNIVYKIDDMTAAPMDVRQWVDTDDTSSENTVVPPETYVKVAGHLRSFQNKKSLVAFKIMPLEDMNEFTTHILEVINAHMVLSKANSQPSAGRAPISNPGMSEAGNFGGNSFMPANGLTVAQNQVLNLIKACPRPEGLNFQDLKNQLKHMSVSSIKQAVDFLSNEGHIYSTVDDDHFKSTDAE", "sequence (P35244 whole entry, chain 4 of 3)": "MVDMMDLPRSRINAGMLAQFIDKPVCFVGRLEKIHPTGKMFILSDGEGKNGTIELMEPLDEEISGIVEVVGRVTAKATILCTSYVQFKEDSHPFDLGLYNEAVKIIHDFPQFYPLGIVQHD", "experiment": "EMSA"}, "[2]": {"biological_target": "T1, Human RPA complex (RPA70, RPA32, RPA14), recombinant full length (human, UniProt P27694;P15927;P35244)", "T1 sequence (P27694 whole entry, chain 1 of 3)": "as the sequence (P27694 whole entry, chain 2 of 3) above", "T1 sequence (P15927 whole entry, chain 2 of 3)": "as the sequence (P15927 whole entry, chain 3 of 3) above", "T1 sequence (P35244 whole entry, chain 3 of 3)": "as the sequence (P35244 whole entry, chain 4 of 3) above", "experiment": "pull-down"}, "[3]": {"biological_target": "T1, Human RPA complex (RPA70, RPA32, …)", "experiment": "SEC"}, "[4]": {"biological_target": "RPA70 as the subunit of the purified recombinant RPA complex (human, UniProt P27694 1-616)", "sequence (P27694 whole entry, one chain of several)": "as the sequence (P27694 whole entry, chain 2 of 3) above", "experiment": "cross-linking"}}, "data": [{"binder": "Gap-26 (mixed) DNA 1: CTATGGCGAGGCGATTATCAACCCATTTAGTCGTAATAGTGAAGAGTCACGACAACATCG DNA 2: TAATCGCCTCGCCATAG DNA 3: CGATGTTGTCGTGACTC", "values": [{"measurement": "binding result", "setting": "[1]", "result": "binds"}]}, {"binder": "GST-ZUP1 α-2/3-C78 (aa 272-578) (domain or fragment) SGGYKQQQLRNMEIEVNRGRMPPSEFHRRKADMMESLALGFDDGKTKTSGIIEALHRYYQNAATDVRRVWLSSVVDHFHSSLGDKGWGCGYRNFQMLLSSLLQNDAYNDCLKGMLIPCIPKIQSMIEDAWKEGFDPQGASQLNNRLQGTKAWIGACEVYILLTSLRVKCHIVDFHKSTGPLGTHPRLFEWILNYYSSEGEGSPKVVCTSKPPIYLQHQGHSRTVIGIEEKKNRTLCLLILDPGCPSREMQKLLKQDIEASSLKQLRKSMGNLKHKQYQILAVEGALSLEEKLARRQASQVFTAEKIP", "values": [{"measurement": "binding result", "setting": "[2]", "result": "binds"}]}, {"binder": "ZUP1 C360A (catalytically inactive mutant of full length ZUP1) (enzyme) MLSCNICGETVTSEPDMKAHLIVHMESEIICPFCKLSGVNYDEMCFHIETAHFEQNTLERNFERINTVQYGTSDNKKDNTLQCGMEVNSSILSGCASNHPKNSAQNLTKDSTLKHEGFYSENLTESRKFLKSREKQSSLTEIKGSVYETTYSPPECPFCGKIEEHSEDMETHVKTKHANLLDIPLEDCDQPLYDCPMCGLICTNYHILQEHVDLHLEENSFQQGMDRVQCSGDLQLAHQLQQEEDRKRRSEESRQEIEEFQKLQRQYGLDNSGGYKQQQLRNMEIEVNRGRMPPSEFHRRKADMMESLALGFDDGKTKTSGIIEALHRYYQNAATDVRRVWLSSVVDHFHSSLGDKGWGAGYRNFQMLLSSLLQNDAYNDCLKGMLIPCIPKIQSMIEDAWKEGFDPQGASQLNNRLQGTKAWIGACEVYILLTSLRVKCHIVDFHKSTGPLGTHPRLFEWILNYYSSEGEGSPKVVCTSKPPIYLQHQGHSRTVIGIEEKKNRTLCLLILDPGCPSREMQKLLKQDIEASSLKQLRKSMGNLKHKQYQILAVEGALSLEEKLARRQASQVFTAEKIP", "values": [{"measurement": "binding result", "setting": "[3]", "result": "binds"}, {"measurement": "binding result", "setting": "[4]", "result": "binds"}]}]}
